Reference: PMC3461514 (The Journal of Cell Biology, 2012)

B1: HEG1 cytoplasmic tail model protein (residues 1,274-1,381) (domain or fragment, human, UniProt Q9ULI3 1274-1381, looked up)
chain: RKNKNDISKLIFKSGDFQMSPYAEYPKNPRSQEWGREAIEMHENGSTKNLLQMTDVYYSPTSVRNPELERNGLYPAYTGLPGSRHSCIFPGQYNPSFISDESRRRDYF

Key:
GST-KRIT1 FERM = GST-KRIT1 FERM (human, UniProt O00522 420-734); assay: pull-down
[1] = target: KRIT1(L717,721A) FERM protein (human, UniProt O00522 420-734, L717A | L721A); assay: ITC
[2] = target: KRIT1 FERM domain, KRIT1(417-736) (human, UniProt O00522 417-736); assay: ITC
Chain of KRIT1 FERM domain, KRIT1(417-736) (O00522 417-736): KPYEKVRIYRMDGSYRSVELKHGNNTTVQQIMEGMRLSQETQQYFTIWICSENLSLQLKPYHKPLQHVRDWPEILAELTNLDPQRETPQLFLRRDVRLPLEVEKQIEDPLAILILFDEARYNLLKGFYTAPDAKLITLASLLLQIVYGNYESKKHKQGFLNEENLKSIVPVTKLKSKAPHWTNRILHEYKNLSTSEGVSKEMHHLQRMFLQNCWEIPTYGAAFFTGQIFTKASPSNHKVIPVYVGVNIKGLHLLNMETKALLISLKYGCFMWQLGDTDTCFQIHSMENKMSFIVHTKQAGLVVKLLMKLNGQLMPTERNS

Chain of GST-KRIT1 FERM (O00522 420-734): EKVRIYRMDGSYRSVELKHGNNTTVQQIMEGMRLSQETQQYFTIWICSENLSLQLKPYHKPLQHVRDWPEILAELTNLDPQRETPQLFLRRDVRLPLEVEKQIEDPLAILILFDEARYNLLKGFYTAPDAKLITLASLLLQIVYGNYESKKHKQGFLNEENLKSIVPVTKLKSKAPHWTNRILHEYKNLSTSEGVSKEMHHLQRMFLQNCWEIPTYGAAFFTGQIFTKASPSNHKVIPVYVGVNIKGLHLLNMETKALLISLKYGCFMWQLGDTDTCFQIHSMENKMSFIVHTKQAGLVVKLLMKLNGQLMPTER
Chain of KRIT1(L717,721A) FERM protein (O00522 420-734 L717A/L721A): as the sequence (O00522 420-734) above, with L298A, L302A counted along it

Row | Binder | binding result (GST-KRIT1 FERM) | fold reduction in affinity against wild type [1] | stoichiometry N [2]
1 | B1 | binds | – | –
2 | SRHSCIFPGQYNPSFISDESRRRDYF (peptide, UniProt Q9ULI3 1356-1381, looked up) [recombinant human HEG1 C26 peptide (residues 1,356-1,381)] | – | > 100 fold | 1.01
